Biological target: MalK, ATPase subunit of the maltose transporter (E. coli, UniProt P68187 1-371)
Assay: crystal structure

MalK, ATPase subunit of the maltose transporter, sequence (P68187 whole entry): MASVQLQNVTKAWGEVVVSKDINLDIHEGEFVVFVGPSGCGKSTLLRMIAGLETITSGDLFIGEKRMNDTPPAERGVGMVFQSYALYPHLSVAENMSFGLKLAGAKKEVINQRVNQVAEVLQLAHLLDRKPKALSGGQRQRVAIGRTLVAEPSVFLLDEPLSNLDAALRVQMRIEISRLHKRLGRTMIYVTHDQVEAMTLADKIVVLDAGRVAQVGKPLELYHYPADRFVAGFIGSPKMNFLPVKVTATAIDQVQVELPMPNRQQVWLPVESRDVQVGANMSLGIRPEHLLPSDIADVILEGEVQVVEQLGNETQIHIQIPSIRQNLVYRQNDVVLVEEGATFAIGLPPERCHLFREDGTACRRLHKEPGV

- binding result: binds
B1: glucose-specific enzyme IIA (EIIA^Glc), full-length (natural protein, E. coli, UniProt P69783 1-169, looked up)
chain: MGLFDKLKSLVSDDKKDTGTIEIIAPLSGEIVNIEDVPDVVFAEKIVGDGIAIKPTGNKMVAPVDGTIGKIFETNHAFSIESDSGVELFVHFGIDTVELKGEGFKRIAEEGQRVKVGDTVIEFDLPLLEEKAKSTLTPVVISNMDEIKELIKLSGSVTVGETPVIRIKK

— paper PMC3875231 (Nature, 2013)
